What was measured:
[1] = tested on: JNG cells expressing the constructs
[2] = tested on: THP-1 cells; assay: JNG NFAT-GFP induction on co-culture with THP-1
[3] = tested on: L363-Luc cells; assay: L363 xenograft in NSG mice; settings: for disease control, L363 xenograft: 0.5 × 10^6 L363-Luc i.v., 3 days later 2 × 10^6 SAR-T i.v., compared to control T cells; for survival, L363 xenograft: mouse, in vivo, iv
[4] = JNG NFAT-GFP background GFP induction (tonic signaling)
[5] = tested on: L363 cells; assay: JNG assay, co-culture with L363 cells; assay type: cell-based; settings: co-culture with L363
In short: (§1)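 Jurkat NFAT-GFP (JNG) cells stably transduced with SARs by lentivirus, with drug selection where the construct carried a resistance gene, then co-cultured with target cells at E:T ~1:2 for ~4–18 h. % GFP-positive cells measured by FACS against parental JNG; +/- to 5+ correspond to ~5–50% GFP-positive.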

[6] = tested on: RAJI cells; assay: JNG assay, co-culture with RAJI cells; assay type: cell-based; settings: JNG cells expressing construct, co-culture with Raji
In short: as §1

[7] = tested on: U266 cells; assay: JNG NFAT-GFP induction on co-culture with U266; assay type: cell-based
[8] = tested on: Nalm6 cells; assay: JNG assay, co-culture with Nalm6 cells; assay type: cell-based; settings: co-culture with Nalm6
In short: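 GFP expression induced through the NFAT pathway was monitored by FACS once SAR-bearing Jurkat reporters had been cultured with target cells at an approximate 1:2 ratio for 4 to 18 hours; parental reporter cells served as the baseline.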

[9] = tested on: Raji-CD22-KO; assay: JNG NFAT-GFP assay, co-culture with Raji-CD22-KO cells; assay type: cell-based

Row | Molecule | cytotoxicity when exposed to antibody [1] | GFP induction upon co-culture with THP-1 [2] | disease control, L363 xenograft [3] | survival, L363 xenograft [3] | background GFP induction (tonic signaling) [4] | other results
1 | SEQ ID NO: 22247: Herceptin mimotag tagged SAR (protein, Herceptin mimotag) MALPVTALLLPLALLLHAARPACPQLGPYELWELSHGTGAVVRGAEFDIQMTQSPSSLSASVGDRVTITCKASDHINNWLAWYQQKPGQAPKLLIYGATTLETGVPSRFSGSGSGTDYTLTISSLQPEDFATYYCQQSWNTPWTFGQGTKLEIKRLEDLKNVFPPEVAVFEPSKAEIAHTQKATLVCLATGFYPDHVELSWWVNGKEVHSGVCTDPQPLKEQPALNDSRYCLSSRLRVSATFWQNPRNHFRCQVQFYGLSENDEWTQDRAKPVTQIVSAEAWGRADCGITSASYHQGVLSATILYEILLGKATLYAVLVSALVLMAMVKRKDSRGRAKRSGSGATNFSLLKQAGDVEENPGPTSATMDWIWRILFLVGAATGAHSGPQVQLQESGGGLAQAGGSLRLSCAASGRTFSMGWFRQAPGKEREFVAAITYSGGSPYYASSVRGRFTISRDNAKNTVYLQMNSLKPEDTAVYYCAANPTYGSDWNAENWGQGTQVTVSSGSGGGGSGGGGSGGGGSFEQVQLQQPGAELVKPGASVKMSCKASGYAFSSYWINWMKQKPGQGLEWIGQIYPGDGDTNYNGKFKGRATLTADTSSSTAYMQLSSLTSEDSAVYFCARSITTVVGCAMDYWGQGTSVTVSSTRIQNPDPAVYQLRDSKSSDKSVCLFTDFDSQTNVSQSKDSDVYITDKCVLDMRSMDFKSNSAVAWSNKSDFACANAFNNSIIPEDTFFPSSDVPCDVKLVEKSFETDTNLNFQNLSVIGFRILLLKVAGFNLLMTLRLWSSRAKRSGSGVKQTLNFDLLKLAGDVESNPGPSRGHMTEYKPTVRLATRDDVPRAVRTLAAAFADYPATRHTVDPDRHIERVTELQELFLTRVGLDIGKVWVADDGAAVAVWTTPESVEAGAVFAEIGPRMAELSGSRLAAQQQMEGLLAPHRPKEPAWFLATVGVSPDHQGKGLGSAVVLPGVEAAERAGVPAFLETSAPRNLPFYERLGFTVTADVEVPEGPRTWCMTRKPGA | showed cytotoxicity |  |  |  |  | 
2 | 21853 (protein) MALPVTALLLPLALLLHAARPSYVLTQPPSVSVAPGQTARITCGGNNIGGKSVHWYQQPPGQAPVVVVYDDSDRPSGIPERFSGSNSGNTATLTISRVEAGDEAVYYCQVWDSSSDHVVFGGGTKLTVLLEDLKNVFPPEVAVFEPSEAEISHTQKATLVCLATGFYPDHVELSWWVNGKEVHSGVCTDPQPLKEQPALNDSRYCLSSRLRVSATFWQNPRNHFRCQVQFYGLSENDEWTQDRAKPVTQIVSAEAWGRADCGFTSESYQQGVLSATILYEILLGKATLYAVLVSALVLMAMVKRKDSRGRAKRSGSGATNFSLLKQAGDVEENPGPTSMDWIWRILFLVGAATGAHSFEQLQLQESGPGLVKPSETLSLTCTVSGGSISSSSYFWGWIRQPPGKGLEWIGSIYYSGITYYNPSLKSRVTISVDTSKNQFSLKLSSVTAADTAVYYCARHDGAVAGLFDYWGQGTLVTVSSATRIQNPDPAVYQLRDSKSSDKSVCLFTDFDSQTNVSQSKDSDVYITDKCVLDMRSMDFKSNSAVAWSNKSDFACANAFNNSIIPEDTFFPSPESSCDVKLVEKSFETDTNLNFQNLSVIGFRILLLKVAGFNLLMTLRLWSS |  | no GFP induction | superior disease control | prolongation of survival | no background GFP induction | 
3 | 21852 (protein) MALPVTALLLPLALLLHAARPSYVLTQPPSVSVAPGQTARITCGGNNLGSKSVHWYQQPPGQAPVVVVYDDSDRPSGIPERFSGSNSGNTATLTISRVEAGDEAVYYCQVWDSSSDHVVFGGGTKLTVLLEDLKNVFPPEVAVFEPSEAEISHTQKATLVCLATGFYPDHVELSWWVNGKEVHSGVCTDPQPLKEQPALNDSRYCLSSRLRVSATFWQNPRNHFRCQVQFYGLSENDEWTQDRAKPVTQIVSAEAWGRADCGFTSESYQQGVLSATILYEILLGKATLYAVLVSALVLMAMVKRKDSRGRAKRSGSGATNFSLLKQAGDVEENPGPTSMDWIWRILFLVGAATGAHSFEQLQLQESGPGLVKPSETLSLTCTVSGGSISSGSYFWGWIRQPPGKGLEWIGSIYYSGITYYNPTLKSRVTISVDTSKNQFSLKLSSVTAADTAVYYCARHDGAVAGLFDYWGQGTLVTVSSATRIQNPDPAVYQLRDSKSSDKSVCLFTDFDSQTNVSQSKDSDVYITDKCVLDMRSMDFKSNSAVAWSNKSDFACANAFNNSIIPEDTFFPSPESSCDVKLVEKSFETDTNLNFQNLSVIGFRILLLKVAGFNLLMTLRLWSS |  | no GFP induction | superior disease control | prolongation of survival | no background GFP induction | 
4 | 22144 (protein) MALPVTALLLPLALLLHAARPMLPAPKNLVVSRITEDSARLSWTAPDAAFDSFPIRYIETLIWGEAIWLDVPGSERSYDLTGLKPGTEYAVVITGVKGGRFSSPLVASFTTGTGGGGSGGGGSGGGGSEFDIQMTQSPSSLSASVGDRVTITCRASQDISNYLNWYQQKPGKAVKLLIYYTSILHSGVPSRFSGSGSGTDYTLTISSLQPEDFATYFCQQGNTLPWTFGGGTKVEIKLEDLKNVFPPEVAVFEPSEAEISHTQKATLVCLATGFYPDHVELSWWVNGKEVHSGVCTDPQPLKEQPALNDSRYCLSSRLRVSATFWQNPRNHFRCQVQFYGLSENDEWTQDRAKPVTQIVSAEAWGRADCGFTSESYQQGVLSATILYEILLGKATLYAVLVSALVLMAMVKRKDSRGRAKRSGSGATNFSLLKQAGDVEENPGPTSMDWIWRILFLVGAATGAHSFEVQLVESGGGLVKPGGSLKLSCAASGFAFSIYDMSWVRQAPGKGLEWVAYISSGGGTTYYPDTVKGRFTISRDNAKNTLYLQMSSLRAEDTAMYYCARHSGYGSSYGVLFAYWGQGTLVTVSSTRIQNPDPAVYQLRDSKSSDKSVCLFTDFDSQTNVSQSKDSDVYITDKCVLDMRSMDFKSNSAVAWSNKSDFACANAFNNSIIPEDTFFPSPESSCDVKLVEKSFETDTNLNFQNLSVIGFRILLLKVAGFNLLMTLRLWSSRAKRSGSGVKQTLNFDLLKLAGDVESNPGPSRGHMTEYKPTVRLATRDDVPRAVRTLAAAFADYPATRHTVDPDRHIERVTELQELFLTRVGLDIGKVWVADDGAAVAVWTTPESVEAGAVFAEIGPRMAELSGSRLAAQQQMEGLLAPHRPKEPAWFLATVGVSPDHQGKGLGSAVVLPGVEAAERAGVPAFLETSAPRNLPFYERLGFTVTADVEVPEGPRTWCMTRKPGA |  |  |  |  |  | NFAT-GFP ASSAY: L363 [5]: + (refer to approximately 5%, 10%, 20%, 30%, 40% and 50% GFP positive cells); NFAT-GFP ASSAY: Raji [6]: + (refer to approximately 5%, 10%, 20%, 30%, 40% and 50% GFP positive cells); NFAT-GFP ASSAY: U266 [7]: 3+ (refer to approximately 5%, 10%, 20%, 30%, 40% and 50% GFP positive cells); NFAT-GFP ASSAY: Nalm6 [8]: +/- (refer to approximately 5%, 10%, 20%, 30%, 40% and 50% GFP positive cells); NFAT-GFP ASSAY: Raji-CD22-KO [9]: +/- (refer to approximately 5%, 10%, 20%, 30%, 40% and 50% GFP positive cells)
5 | SEQ ID NO: 22248: Herceptin mimotag tagged SAR (protein, Herceptin mimotag) MALPVTALLLPLALLLHAARPDIQMTQSPSSLSASVGDRVTITCKASDHINNWLAWYQQKPGQAPKLLIYGATTLETGVPSRFSGSGSGTDYTLTISSLQPEDFATYYCQQSWNTPWTFGQGTKLEIKRLEDLKNVFPPEVAVFEPSEAEISHTQKATLVCLATGFYPDHVELSWWVNGKEVHSGVCTDPQPLKEQPALNDSRYCLSSRLRVSATFWQNPRNHFRCQVQFYGLSENDEWTQDRAKPVTQIVSAEAWGRADCGFTSESYQQGVLSATILYEILLGKATLYAVLVSALVLMAMVKRKDSRGRAKRSGSGATNFSLLKQAGDVEENPGPTSATMDWIWRILFLVGAATGAHSGPQLGPYELWELSHGSGPLGIAGIFEQVQLQQPGAELVKPGASVKMSCKASGYAFSSYWINWMKQKPGQGLEWIGQIYPGDGDTNYNGKFKGRATLTADTSSSTAYMQLSSLTSEDSAVYFCARSITTVVGCAMDYWGQGTSVTVSSTRIQNPDPAVYQLRDSKSSDKSVCLFTDFDSQTNVSQSKDSDVYITDKCVLDMRSMDFKSNSAVAWSNKSDFACANAFNNSIIPEDTFFPSPESSCDVKLVEKSFETDTNLNFQNLSVIGFRILLLKVAGFNLLMTLRLWSSRAKRSGSGVKQTLNFDLLKLAGDVESNPGPSRGHMTEYKPTVRLATRDDVPRAVRTLAAAFADYPATRHTVDPDRHIERVTELQELFLTRVGLDIGKVWVADDGAAVAVWTTPESVEAGAVFAEIGPRMAELSGSRLAAQQQMEGLLAPHRPKEPAWFLATVGVSPDHQGKGLGSAVVLPGVEAAERAGVPAFLETSAPRNLPFYERLGFTVTADVEVPEGPRTWCMTRKPGA | showed cytotoxicity |  |  |  |  | 

— patent publication US20230212319A1, “NOVEL ANTIGEN BINDING DOMAINS AND SYNTHETIC ANTIGEN RECEPTORS INCORPORATING THE SAME” (University of Southern California, priority 2020, published 2023)
